The values below come from article PMC11220700, “Activation and Purification of ß‐Glucocerebrosidase by Exploiting its Transporter LIMP‐2 – Implications for Novel Treatment Strategies in Gaucher's and Parkinson's Disease” (Advanced Science, 2024).

Where a chain is given by its changes, count along the chain named. Names may count otherwise.

Data set [1] relates to GCase variants in HEK 293T cell lysates. Put plainly: GCase activity in cell lysates of cells overexpressing GCase variants. The settings on record: 4MU; for GCase activity compared with mock: cell lysates, N370S n = 3, L444P n = 5. The class given is cell-based, human. As to the method:
(§1) HEK 293T cells (Leibniz Institute DSMZ‐German Collection of Microorganism and Cell Cultures GmbH, Braunschweig, Germany) were cultured on TC dishes (Sarstedt, Nümbrecht, Germany, #83.3902, #83.3903) in Dulbecco's modified eagle medium (DMEM, Gibco, Carlsbad, CA, United States) supplemented with 10% fetal calf serum (FCS, PANbiotech, Aidenbach, Germany) and 1× penicillin/streptomycin (Sigma‐Aldrich, St. Louis, MO, United States, #P0781) at 37 °C, 5% CO2 and 95% humidity. Passaging was done at 70–90% confluence by detaching with trypsin (PAN‐Biotech, Aidenbach, Germany, #P10‐023100) for 5 min and transferring part of the culture to a new dish containing fresh medium. The HEK 293T cells were transfected using PEI at 60–70% confluence. For a 10 cm TC dish, the transfection mix was prepared by adding 5 µg plasmid DNA, 15 µg of PEI (ratio of 1:3 DNA to PEI) to 300 µl DMEM without FCS. After incubation for 25 min at room temperature, the mix was added to the cells. If the cell supernatant was analyzed, the cells were washed twice with phosphate‐buffered saline (PBS, Gibco, Carlsbad, CA, United States) and the medium was changed to DMEM without FCS 16 h after transfection.
Harvested cells were washed three times with cold PBS and pelleted (1.000 × g, 3 min, 4 °C). […] Protein concentrations were determined using Pierce BCA Protein Assay Kit (ThermoFisher Scientific Inc., Waltham, MA, United States, #23 227).
Activity of GCase‐containing samples (recombinant protein, cell lysate, LE fractions, conditioned culture medium) was measured using the synthetic substrate 4‐methylumbelliferyl‐β‐D‐glucopyranoside (4MU, Merck Millipore, Billerica, MA, United States, #M3633). […] GCase activity was quantified via fluorescence of released 4‐methylumbelliferone (endpoint measurement) using an Infinite 200 Pro (TECAN, Männedorf, Switzerland), SpectraMax Gemini (Molecular Devices, San José, CA, United States) or ClarioStar (BMG LABTECH, Ortenberg, Germany) multiplate reader (λ ex: 365 nm; λ em: 445 nm). […]

The subject of the next data set is GCase variants. The settings on record: cited from earlier work. The text has this: The link between GCase and PD was first established when studies found an increased prevalence of PD in GD patients and their relatives.^[ [14], [15], [16] ^] […] All three variants are characterized by compromised stability and/or enzyme activity. The L444P variant ...
The test system of data set [2] is GCase variants in HEK 293T cells. Put plainly: GCase activity in LE fractions after co‐expression of GCase variants with FL‐LIMP‐2. The class given is cell-based, human. The settings on record: versus FL‐LIMP‐2‐3xD. As to the method: as §1
Activity of GCase‐containing samples (recombinant protein, cell lysate, LE fractions, conditioned culture medium) was measured using the synthetic substrate 4‐methylumbelliferyl‐β‐D‐glucopyranoside (4MU, Merck Millipore, Billerica, MA, United States, #M3633). […] of the sample (cell supernatant, SEC fractions) or 2.5 µg of total protein from whole‐cell lysates were added to the well of a black 96‐well Maxisorp plate (ThermoFisher Scientific Inc., Waltham, MA, United States, #437 111). The reaction volume was then increased to 100 µL with GCase activity buffer (see paragraph “Cell Lysis”) and a final concentration of 1 µM of 4MU substrate was added. After incubation at 37 °C for 30 min, the reaction was stopped by adding 100 µL of stop solution (0.1 M glycine, pH 10.4). GCase activity was quantified via fluorescence of released 4‐methylumbelliferone (endpoint measurement) using an Infinite 200 Pro (TECAN, Männedorf, Switzerland), SpectraMax Gemini (Molecular Devices, San José, CA, United States) or ClarioStar (BMG LABTECH, Ortenberg, Germany) multiplate reader (λ ex: 365 nm; λ em: 445 nm).
For evaluation, all data sets obtained for GCase enzymatic activity were baseline‐corrected and normalized to the overall signal (either total signal or average of controls) within each replicate experiment to correct for signal differences between different measurement devices and replicate measurements.

For data set [3] the test system is unchanged. As to the kind of experiment: Western blot of GCase in LE fractions after co‐expression with FL‐LIMP‐2. The conditions noted are these: versus FL‐LIMP‐2‐3xD. It is filed as cell-based, human. How it is done:
SDS PAGE was performed using a Tris‐glycine buffer system (resolving buffer: ThermoFisher Scientific Inc., Waltham, MA, United States, #HC2215; stacking buffer: ThermoFisher Scientific Inc., Waltham, MA, United States, #HC2115; running buffer: 25 mM Tris, 192 mM glycine, […]). All samples were prepared by adding 5× Laemmli buffer (0.3 M Tris‐HCl, pH 6.8, 10% w/v SDS, 50% v/v glycerol, 5% v/v β‐mercaptoethanol, 5% w/v bromophenol blue) to the samples in a 1:5 ratio and heating the samples for 5 min at 95 °C. The samples were then separated over a 10% polyacrylamide gel. After SDS PAGE, wet blotting was performed to transfer the proteins onto a PVDF membrane (Merck Millipore, Billerica, MA, United States, #IPFL00010). […] After incubation, membranes were washed three times with TBS‐T (TBS + 0.1% v/v TWEEN‐20) before incubation with secondary antibodies for 2 h at RT followed by three more washing steps with TBS‐T. The fluorescence‐based acquisition was done using an Odyssey (LI‐COR Biosciences, Lincoln, NE, United States) or IBright (ThermoFisher Scientific Inc., Waltham, MA, United States) imaging system. […]
Quantification of western blot data was performed in ImageStudioLite 5.2 (LI‐COR Biosciences, Lincoln, NE, United States). […]

B1: E326K: PD‐associated GCase variant (protein)
chain: ARPCIPKSFGYSSVVCVCNATYCDSFDPPTFPALGTFSRYESTRSGRRMELSMGPIQANHTGTGLLLTLQPEQKFQKVKGFGGAMTDAAALNILALSPPAQNLLLKSYFSEEGIGYNIIRVPMASCDFSIRTYTYADTPDDFQLHNFSLPEEDTKLKIPLIHRALQLAQRPVSLLASPWTSPTWLKTNGAVNGKGSLKGQPGDIYHQTWARYFVKFLDAYAEHKLQFWAVTAENEPSAGLLSGYPFQCLGFTPEHQRDFIARDLGPTLANSTHHNVRLLMLDDQRLLLPHWAKVVLTDPEAAKYVHGIAVHWYLDFLAPAKATLGKTHRLFPNTMLFASEACVGSKFWEQSVRLGSWDRGMQYSHSIITNLLYHVVGWTDWNLALNPEGGPNWVRNFVDSPIIVDITKDTFYKQPMFYHLGHFSKFIPEGSQRVGLVASQKNDLDAVALMHPDGSAVVVVLNRSSKDVPLTIKDPAVGFLETISPGYSIHTYLWRRQ
With B1, the “residual activity of GCase variant” value in data set [1] (HEK 293T cell lysates, versus wt, n = 5, mean ± SEM) is 40.0 ± 2.2%. For the same molecule, the “residual activity of GCase variant (literature)” value in the data set on GCase variants is on record as “≈ 40%”.

B2: N370S: disease‐associated GCase variant (protein)
chain: B1 chain with K326E, N370S
Regarding B2, in data set [1], the “GCase activity compared with mock” value is listed as “do not differ significantly from the mock”. Further, the “stability and activity of GCase variant (literature)” value in the data set with GCase variants is reported as “stable with low residual activity”.

B3: L444P: disease‐associated GCase variant (protein)
chain: B1 chain with K326E, L444P
Regarding B3, the “GCase activity compared with mock” value in data set [1] is recorded as “do not differ significantly from the mock”. In addition, the “stability and activity of GCase variant (literature)” value with GCase variants is “impaired stability and highly impaired activity”.

B4: FL‐LIMP‐2: full‐length, membrane‐anchored wt LIMP‐2 (protein, UniProt Q14108 1-478, looked up)
chain: MGRCCFYTAGTLSLLLLVTSVTLLVARVFQKAVDQSIEKKIVLRNGTEAFDSWEKPPLPVYTQFYFFNVTNPEEILRGETPRVEEVGPYTYRELRNKANIQFGDNGTTISAVSNKAYVFERDQSVGDPKIDLIRTLNIPVLTVIEWSQVHFLREIIEAMLKAYQQKLFVTHTVDELLWGYKDEILSLIHVFRPDISPYFGLFYEKNGTNDGDYVFLTGEDSYLNFTKIVEWNGKTSLDWWITDKCNMINGTDGDSFHPLITKDEVLYVFPSDFCRSVYITFSDYESVQGLPAFRYKVPAEILANTSDNAGFCIPEGNCLGSGVLNVSICKNGAPIIMSFPHFYQADERFVSAIEGMHPNQEDHETFVDINPLTGIILKAAKRFQINIYVKKLDDFVETGDIRTMVFPVMYLNESVHIDKETASRLKSMINTTLIITNIPYIIMALGVFFGLVFTWLACKGQGSMDEGTADERAPLIRT
modifications: full-length
Consider B4, for which, in data set [2] (co‐expression with GCase E326K), the “GCase activity in LE fractions, E326K” value is reported as “significant increases”. Further, in data set [2] (co‐expression with GCase L444P), the “GCase transport and activity, L444P” value is “both transport and activity could not be rescued by LIMP‐2”. For the same molecule, the “GCase activity in LE fractions, N370S” value in data set [2] (co‐expression with GCase N370S) is recorded as “no increase in enzymatic activity could be determined”. In data set [2] (co‐expression with GCase wt), the “GCase activity in LE fractions, wt” value is on record as “significant increases”. Moreover, in data set [3], the “lysosomal GCase levels of wt, E326K and N370S” value is “exceeded those of the FL‐LIMP‐2‐3xD control”.
